Patent US20250277022A1 (STAIDSON BEIJING BIOPHARMACEUTICALS, published 2025)
Like-named read-outs stand apart in the source and are kept apart here.

How the values were obtained:
[1] = target: T1, human TSLP (human, UniProt Q969D9 29-159); test: cell-based or functional assay
[2] = target: T1, human TSLP; test: ELISA, plate coated with human TSLP, test antibodies as human IgG1
Experimental: (§1) ELISA Screening: Monoclonal scFv antibodies were selected and subjected to ligand binding assays. The first assay was designed to identify scFv antibodies that bound human TSLP and/or cynomolgus TSLP. Briefly, a 96-well plate was coated with human TSLP or cynomolgus TSLP in PBS at 0.1 μg/well and left overnight at 4° C. Before loading the scFv antibodies, the plates were washed with TBST, blocked for 1-2 hours at 37° C. using 5% milk and washed again with TBST. Each scFv sample was first diluted to 40 μg/mL, and 150 μL was added to the first row of wells. The 40 μg/mL scFv samples were then serially diluted at a 1:3 ratio and added to the remaining wells. After incubating for an hour at 37° C., followed by washing with TBST for 6 times, 100 μl of the secondary antibody (HRP labeled mouse anti-flag (1:2500)) was added to each well. After incubation for an hour under 37° C., the plate was washed for 3 times using TBST. TMB was then added at 100 μL/well and incubated for 10-20 minutes at 37° C. 2 M H₂SO₄ was used to stop the reaction. The ELISA results (OD405) were then analyzed and the binding curves were generated by PRISM.

[3] = target: T1, human TSLP; test: cell-based or functional assay; remark: listed apart in the source
[4] = target: T2, TSLP-His (human, UniProt Q969D9 29-159, limits assumed); test: HTRF competition: blocking of TSLP-his binding to HEK293-Flag-hTSLPR-IL7Ra cells, IgG1
T2 construct: also called his-tagged TSLP; not shown: His-tag

[5] = target: T3, cynomolgus monkey TSLP (cynomolgus monkey, UniProt A0A7N9CAT7 29-159); test: ELISA, plate coated with cynomolgus monkey TSLP, test antibodies as human IgG1
T3 construct: also called cynomolgus TSLP; recombinant cynomolgus monkey TSLP
Experimental: as §1

[6] = target: T3, cynomolgus monkey TSLP; test: as above; remark: listed apart in the source
Experimental: as §1

[7] = target: T1, human TSLP; test: ELISA, plate coated with human TSLP, test antibodies as human IgG1; remark: listed apart in the source
Experimental: as §1

T3 sequence (A0A7N9CAT7 entry or part of it): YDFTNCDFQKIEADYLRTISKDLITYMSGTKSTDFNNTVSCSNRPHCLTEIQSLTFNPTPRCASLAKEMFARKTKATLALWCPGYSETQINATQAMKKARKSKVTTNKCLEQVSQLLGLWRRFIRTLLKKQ
T1 sequence (Q969D9 29-159 R127A/R130S limits assumed): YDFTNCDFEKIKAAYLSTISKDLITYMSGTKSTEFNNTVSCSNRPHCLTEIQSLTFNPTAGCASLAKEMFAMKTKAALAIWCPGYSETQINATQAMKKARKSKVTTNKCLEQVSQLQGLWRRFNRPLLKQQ
T2 sequence (Q969D9 29-159 R127A/R130S limits assumed): as above

Binder	IC50, inhibition of human TSLP-induced Stat5 activation (Stat5-luciferase reporter, Ba/F3 cells with hTSLPR and hIL7Ra) [1] [µg/mL]	EC50 (read off the curve) [2] [µg/mL]	IC50, inhibition of TSLP induced proliferation of Ba/F3-TSLPR-IL7Ra cells (CellTiter-Glo) [3] [µg/mL]	IC50 [4] [µg/mL]	EC50 (read off the curve) [5] [µg/mL]	EC50 (read off the curve) [6] [µg/mL]	EC50 (read off the curve) [7] [µg/mL]
TSLP-04 (antibody, V domains shown, also called parent antibody TSLP-04) V domain 1: QEQLVQSGDEVKKPGASVKVSCKSSGFTFGSYAISWVRQAPGQGLEWMGMLVPLLGVTNYAEKFQGRVTITADPSTTTTSMELSSLRSEDTAVYYCARGGSNYLYWYFDLWGPGTPITVSS V domain 2: QSAPIQPRSVSGSPGQSVTISCTGTSSDIGGYNRISWYQQHPGKAPKLMIYDVSKRPSGVSDRFSGSKSGNTASLTISGLQAEDEADYYCSSYAGTDTFVLFGGGTQLTIV	0.0364	~0.1	0.15	–	–	–	–
TSLP-0401 (antibody, V domains shown) V domain 1: QEQLVQSGDEVKKPGASVKVSCKSSGFTFGSYAISWVRQAPGQGLEWMGMIIPLLGVTDYAEKFQGRVTITADPSTTTTSMELSSLRSEDTAVYYCARGGTNYLYWYFDLWGPGTPITVSS V domain 2: QSAPIQPRSVSGSPGQSVTISCTGTSSDIGGYNRVSWYQQHPGKAPKLMIYEVSKRPSGVSDRFSGSKSGNTASLTISGLQAEDEADYYCSAYAGTDTFVLFGGGTQLTIV	0.0195	~0.1	0.0195	0.333	~2	–	–
TSLP-0301 (antibody, V domains shown) VH: EVQLVESGGGLVQPGGSLRLSCAASGFTFSNYDMTWVRQAPGKGLEWVSSITFASSYIYYADSVKGRFTISRDNAKNSLSLQMNSLRAEDTAVYYCTRGGGAYYGGSLDVWGQGVLVTVSS VL: DIVMTQTPLSLSVTPGEPASISCRSSQSLLHSNEYTYLHWYLQKPGQSPQLLIYLVSHRASGVPDRFSGSGSDTDFTLKISRVEAEDVGVYYCEQTLQTPFTFGGGTKVEIK	0.0417	–	0.217	–	–	~2	–
TSLP-0302 (antibody, V domains shown) VH: EVQLVESGGGLVQPGGSLRLSCAASGFTFSNYGMTWVRQAPGKGLEWVSSITFASSYIYYADSVKGRFTISRDNAKNSLSLQMNSLRAEDTAVYYCTRGGGAYYGGSLDVWGQGVLVTVSS VL: DIVMTQTPLSLSVTPGEPASISCRSSQSLLHSYGYTYLHWYLQKPGQSPQLLIYLVSYRASGVPDRFSGSGSDTDFTLKISRVEAEDVGVYYCEQTLQTPYTFGGGTKVEIK	–	–	–	–	–	–	~0.06
TSLP-03 (antibody, V domains shown, also called parent antibody TSLP-03) VH: EVQLVESGGGLVQPGGSLRLSCAASGFTFSNYDMTWVRQAPGKGLEWVSSITFASSYIYYADSVKGRFTISRDNAKNSLSLQMNSLRAEDTAVYYCTRGGGAYHGGSLDVWGQGVLVTVSS VL: DIVMTQTPLSLSVTPGEPASISCRSSQSLLHINGYTYLHWYLQKPGQSPQLLIYLVSHRASGVPDRFSGSGSDTDFTLKISRVEAEDVGVYYCEQTLQTPYSFGGGTKVEIK	0.0367	–	0.198	0.494	–	~0.9	~0.08
